{"source": "patent US8008256B2", "about": "“Combination therapy for treatment of cancer” (priority 2006, dated 2011)", "molecules": {"B1": {"name": "native CN (protein)", "chain": "DAPANPCCDAATCKLTTGSQCADGLCCDQCKFMKEGTVCRRARGDDLDDYCNGISAGCPRNPFH"}}, "key": {"PC-3 tumors": {"test_system": "PC-3 tumors", "assay": "PC-3 xenograft tumor growth", "assay_type": "in vivo, athymic male nude mice (Balb/c/nu/nu mice)", "settings": "for mean tumor volume after four weeks: docetaxel i.p. 6 then 4 mg/kg twice a week, CN 60 μg/day osmotic mini-pump, control 378±49; for suppression of growth of PC-3 tumors: four weeks treatment", "method": "100 μl of PC-3 cell suspension (1×10^6 cells) (ATCC.org, Manassas, Va.) was mixed with an equal volume, 100 μl of Matrigel basement membrane matrix (BD Biosciences, Bedford, Mass.) and injected subcutaneously into the flank region of athymic male nude mice (Balb/c/nu/nu mice) (Charles River Laboratory, Wilmington, Mass.). Four weeks after inoculation, 32 mice with PC-3 tumors were randomized into four groups with 8 mice in each group. The control group was treated with PBS and released from Alzet osmotic mini-pumps for four weeks. The second group was treated with docetaxel injections intraperitoneally at a dose of 6 mg/kg twice a week for two weeks and then switched to 4 mg/kg twice a week for two weeks. The third group was treated with contortrostatin (CN) at a dose of 60 μg/day which was continually released from subcutaneously implanted Alzet osmotic mini-pumps for four weeks. The fourth group was treated with a combination of docetaxel and CN at doses indicated in groups 2 and 3 for four weeks. Tumor volume was measured one a week and are calculated according to the formula: length×width^2×0.52."}, "MDA-MB-435 cells": {"test_system": "MDA-MB-435 cells", "assay": "MDA-MB-435 cell invasion through Matrigel/ECMatrix in modified Boyden chamber", "assay_type": "cell-based, human", "settings": "10, 100, 1000 nM; 8 hrs in Boyden chamber", "method": "(§1) Pretreated cells were allowed to adhere for 1 hr at 25° C., and after non-adherent cells were washed away, the number of adherent cells for each condition was estimated using the MTS cell viability assay. In the cell invasion assay, an invasion chamber consisting of cell culture inserts that fit into 24-well tissue culture plate has been utilized. The inserts contain an 8 μm-pore size polycarbonate membrane, over which a thin layer of ECMatrix™ was applied. The ECMatrix™ serves as an in vitro reconstituted basement membrane and is a solid gel of ECM proteins prepared from the Engelbreth Holm-Swarm (EHS) mouse tumor. The ECM layer occludes the membranes pores, blocking non-invasive cells to migrate through. The cells were incubated in the presence of various concentrations (10, 100, 1000 nM) of either native CN or Vicrostatin for 30 min at 25° C. and then allowed to migrate in the Boyden chamber for 8 hrs. At the 8 hr time point the cells that invaded through the pores into the lower chamber were measured. The numbers of invaded cells for each condition were approximated by quantitating the retrieved labeled DNA using a fluorescent plate reader. The results were calculated in % invasion, where the untreated control was considered as 100% invasion."}, "[1]": {"target": "T1, GPIIb/IIIa (integrin αIIbβ3) (Homo sapiens, UniProt P05106+P08514)", "T1 construct": "endogenous in cells", "assay": "platelet aggregation inhibition assay (ADP induced, platelet-rich plasma)", "assay_type": "cell-based", "method": "The recombinant CN products were evaluated for biological activity by a platelet aggregation inhibition assay. According to this assay, CN binding to GPIIb/IIIa (integrin αIIbβ3) in an RGD dependent manner inhibits ADP induced platelet aggregation (Trikha, Rote, et al. 1994). In this assay, potential inhibitors are added to fresh platelet-rich plasma, and after minute, ADP is added to a final concentration of 1 μM to induce aggregation. If inhibitor is present, functional aggregation will not occur. The IC50 is defined as the concentration at which 50% of the activity is inhibited, and is used as a measure of the potency of an inhibitor."}, "[2]": {"test_system": "MDA-MB-435 breast carcinoma cells", "assay": "inhibition of MDA-MB-435 cell adhesion to immobilized vitronectin (Vn)", "assay_type": "cell-based, human", "settings": "pretreatment 30 min, 0-1000 nM; adhesion 1 hr at 25° C.; MTS", "method": "as §1"}, "[3]": {"test_system": "MDA-MB-435 breast carcinoma cells", "assay": "inhibition of MDA-MB-435 cell adhesion to immobilized fibronectin (Fn)", "assay_type": "cell-based, human", "settings": "pretreatment 30 min, 0-1000 nM; adhesion 1 hr at 25° C.; MTS", "method": "as §1"}, "[4]": {"assay": "liposome encapsulation efficiency (BCA protein assay)", "assay_type": "physicochemical", "method": "Endotoxin-free VN containing liposomes (referred to as LVN) and endotoxin-free native CN containing liposomes (referred to as LCN) were prepared utilizing a probe sonication previously described (Fujii, Chang et al. 1997). Briefly, the lipids (disteroylphosphatidylcholine, cholesterol and polyethylene glycol derivatized lipid) were dissolved in a chloroform/methanol solution. Thin lipid films were created by pipetting aliquots of the lipid solution into round bottom glass tubes followed by solvent evaporation at 65° C. under a stream of nitrogen gas. The films were placed under vacuum for at least 24 hours to remove residual organic solvent. Liposomes formed following hydration of the lipid films with native CN or VN dissolved in 10 mM sodium phosphate, 9% sucrose, pH 7.2. The mixture was incubated at 65° C. for 5-10 minutes. Hydration was followed by probe sonication until the suspension was translucent. […]\nThe concentration of liposome entrapped CN/VN was determined by disruption of the liposomes with chloroform/methanol/water (10:40:50) followed by centrifugation at 14,000×g. The supernatant was analyzed for CN/VN concentration using BCA protein assay (Smith et al., Anal. Biochem. 150(1): 76-85 (1985)). The encapsulation efficiency was assessed by BCA protein determination following disruption of the LrCN with a solution of H2O methanol: chloroform."}}}
{"molecule": "CC(=O)O[C@@]12CO[C@@H]1C[C@H](O)[C@@]1(C)C(=O)[C@H](O)C3=C(C)[C@@H](OC(=O)[C@H](O)[C@@H](NC(=O)OC(C)(C)C)c4ccccc4)C[C@@](O)([C@@H](OC(=O)c4ccccc4)[C@H]21)C3(C)C", "note": "[docetaxel, reference compound]", "values": [{"measurement": "mean tumor volume after four weeks", "setting": "PC-3 tumors", "value": "259±38", "unit": "mm^3"}, {"measurement": "suppression of growth of PC-3 tumors", "setting": "PC-3 tumors", "value": "significantly suppressed"}]}
{"molecule": "rCN: recombinant CN disintegrin domain without the HKGPAT sequence", "values": [{"measurement": "inhibition of MDA-MB-435 cell invasion", "setting": "MDA-MB-435 cells", "value": "inactive in the nanomolar range"}, {"measurement": "inhibition of platelet aggregation", "setting": "[1]; even at low μM concentrations", "value": "did not inhibit platelet aggregation"}, {"measurement": "inhibition of adhesion of MDA-MB-435 cells to immobilized vitronectin (Vn)", "setting": "[2]", "value": "inactive in the nanomolar range"}, {"measurement": "inhibition of adhesion of MDA-MB-435 cells to immobilized fibronectin (Fn)", "setting": "[3]", "value": "inactive in the nanomolar range"}]}
{"molecule": "B1", "values": [{"measurement": "protein in the encapsulation solution entrapped within the liposomes", "setting": "[4]", "value": 80, "unit": "%"}, {"measurement": "IC50 in the platelet inhibition assay", "setting": "[1]; ADP 1 μM induced aggregation", "value": "almost identical"}, {"measurement": "inhibition of adhesion of MDA-MB-435 cells to immobilized vitronectin (Vn)", "setting": "[2]", "value": "inhibited adhesion"}, {"measurement": "inhibition of adhesion of MDA-MB-435 cells to immobilized fibronectin (Fn)", "setting": "[3]", "value": "inhibited adhesion"}, {"measurement": "mean tumor volume after four weeks", "setting": "PC-3 tumors", "value": "195±40", "unit": "mm^3"}, {"measurement": "suppression of growth of PC-3 tumors", "setting": "PC-3 tumors", "value": "significantly suppressed"}]}
